Laboratory results published in patent US20060029603A1 (GlaxoSmithKline, published 2006).
Changes are numbered by the printed parent chain. Where two headings read alike, the source gives them in different places.

B1: HcLc (chimera of 2A10: murine 2A10 VH and VL with human IgG constant regions) (antibody, V domains shown)
VH: QVQLQQPGTELVKPGASVKLSCKASGYTFTSYWMHWVKQRPGQGLEWIGNINPSNGGTNYNEKFKSKATLTVDKSSSTAYMQLSSLTSEDSAVYYCELGQGYWGQGTLVTVSS
VL: DIVITQDELSNPVTSGESVSISCRSSKSLLYKDGKTYLNWFLQRPGQSPQLLIYLMSTRASGVSDRFSGSGSGTDFTLEISRVKAEDVGVYYCQQLVEYPLTFGAGTKLELKR
notes: Human gamma1 mutated constant region and human kappa; also called 2A10 chimeric antibody; the chimera
B2: murine monoclonal antibody 2A10 (antibody, V domains shown)
VH: B1 VH with L108T, V109L
VL: DIVITQDELSNPVTSGESVSISCRSSKSLLYKDGKTYLNWFLQRPGQSPQLLIYLMSTRASGVSDRFSGSGSGTDFTLEISRVKAEDVGVYYCQQLVEYPLTFGAGTKLELK
notes: Murine antibody; also called donor antibody
B3: H6Lc (antibody, human IgG1, kappa, V domains shown)
VH: QVQLVQSGAEVKKPGASVKVSCKASGYTFTSYWMHWVRQAPGQGLEWIGNINPSNGGTNYNEKFKSRATMTRDTSTSTAYMELSSLRSEDTAVYYCELGQGYWGQGTLVTVSS
VL: B1 VL
notes: Humanised heavy chain H6 paired with chimeric light chain Lc; The pairing is read from the name
B4: H6L18 (antibody, human IgG1, kappa, V domains shown)
VH: B3 VH
VL: B1 VL with I4M, E8P, S15L, E17Q, S18P, E79K, K84E, A105Q, L111I
notes: Tested as CHO-K1 supernatant
B5: H16L16 (antibody, human IgG1, kappa)
heavy: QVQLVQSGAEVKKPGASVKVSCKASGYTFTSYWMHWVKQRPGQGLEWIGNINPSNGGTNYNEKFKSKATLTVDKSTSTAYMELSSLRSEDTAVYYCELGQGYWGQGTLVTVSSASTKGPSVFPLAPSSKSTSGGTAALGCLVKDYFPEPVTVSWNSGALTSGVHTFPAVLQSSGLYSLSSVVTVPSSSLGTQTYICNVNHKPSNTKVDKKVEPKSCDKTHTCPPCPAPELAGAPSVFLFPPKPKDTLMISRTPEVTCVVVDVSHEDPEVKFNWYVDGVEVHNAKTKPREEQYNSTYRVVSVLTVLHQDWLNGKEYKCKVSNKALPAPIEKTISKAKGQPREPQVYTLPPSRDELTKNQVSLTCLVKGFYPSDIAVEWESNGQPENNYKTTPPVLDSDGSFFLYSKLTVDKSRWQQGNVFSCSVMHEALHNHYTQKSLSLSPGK
light: DIVMTQSPLSNPVTLGQPVSISCRSSKSLLYKDGKTYLNWFLQRPGQSPQLLIYLMSTRASGVPDRFSGGGSGTDFTLKISRVEAEDVGVYYCQQLVEYPLTFGQGTKLEIKRTVAAPSVFIFPPSDEQLKSGTASVVCLLNNFYPREAKVQWKVDNALQSGNSQESVTEQDSKDSTYSLSSTLTLSKADYEKHKVYACEVTHQGLSSPVTKSFNRGEC
notes: Humanised 2A10; Human gamma1 mutated constant region and human kappa; also called H16L16 FL
B6: H18L16 (antibody, human IgG1, kappa, V domains shown)
VH: B1 VH with Q5V, P7S, T9A, L11V, Q82E, T87R
VL: DIVMTQSPLSNPVTLGQPVSISCRSSKSLLYKDGKTYLNWFLQRPGQSPQLLIYLMSTRASGVPDRFSGGGSGTDFTLKISRVEAEDVGVYYCQQLVEYPLTFGQGTKLEIKR
notes: Humanised 2A10; also called H18L16 FL

Columns and labels:
GST-human NOGO-A56 [1] = biological target: T1, GST-human NOGO-A56 (human, UniProt P08515 1-218 = GST); assay: SPR (Biacore 3000), GST-human NOGO-A56 on CM5, antibody as analyte; single experiment
T1 construct: GST-tagged fusion expressed in E. coli BL21 and purified on glutathione-sepharose; coated on ELISA plates or amine-coupled to a CM5 chip; also called hNOGO; recombinant human NOGO
Protocol: (§1) The binding kinetics of the anti-NOGO monoclonal antibody (mAb) to recombinantly expressed human NOGO-A (GST-human NOGO-A56) was analysed using the Biacore3000 biosensor. The hNOGO-A chip was prepared as follows:
(§2) hNOGO (GST-human NOGO-A56) was immobilised to a CM5 chip by primary amine coupling using the Biacore Wizard program designed for targeted immobilisation levels. The CM5 sensor surface was activated by passing a solution of 50 mM N-hydroxy-succinimide (NHS) and 200 mM N-ethyl-N′-dimethylaminopropyl […] (EDC). Then hNOGO in sodium acetate buffer, pH5.0 or pH 4.5, was passed over the chip and immobilised. After immobilisation was complete any still activated esters were blocked by an injection of 1M ethanolamine hydrochloride, pH8.5.
(§3) The anti-NOGO mAbs were diluted down in HBS-EP (10 mM HEPES, pH 7.4, 150 mM NaCl, 3 mM EDTA, and 0.005% P-20 surfactant) and binding studies were carried out at range of defined antibody concentrations. All runs were referenced against a blanked sensor surface (one that had been activated and blocked as described earlier but had no addition of ligand). Analysis of binding was carried out using the BIAevaluation kinetic analysis software version 4.1. Biacore analysis of other antibodies of the invention essentially followed the same protocol as described herein.

GST-human NOGO-A56 [2] = biological target: T1, GST-human NOGO-A56; assay: SPR (Biacore 3000), GST-human NOGO-A56 on CM5, antibody as analyte; mean (SD) of two experiments
Protocol: as §2, §3

GST-human NOGO-A56 [3] = biological target: T1, GST-human NOGO-A56; assay: ELISA, coated GST-human NOGO-A56, transfection supernatant, anti-human kappa-HRP, OD 490 nm
Protocol: (§4) GST-human NOGO-A56 (SEQ ID: 76) at 1 μg/ml in PBS was coated onto Nunc Immunosorp plates (100 μl per well) at 4° C. overnight. Wells were rinsed once with TBS+0.05% Tween (TBST) then incubated with 2% BSA in TBST to block non-specific binding sites at room temperature for 1 hour. Antibodies were diluted in TBST+2% BSA to 10 μg/ml and 1/2 dilutions made from this. Antibodies were added to wells in duplicate and incubated at room temperature for 1 hour. Wells were washed three times with TBST then incubated with anti-human kappa peroxidase conjugate (1:2000) for 1 hour. The wells were washed three times with TBST and then incubated with 100 μl OPD peroxidase substrate (Sigma) per well for 10 minutes. The colour reaction was stopped by the addition of 25 μl concentrated H₂SO₄. Optical density at 490 nm was measured using a plate reader. Background values read from wells with no antibody were subtracted.

GST-human NOGO-A56 [4] = biological target: T1, GST-human NOGO-A56; assay: as above; remark: listed apart in the source
Protocol: as §4

GST-human NOGO-A56 [5] = biological target: T1, GST-human NOGO-A56; assay: as above; remark: listed apart in the source
Protocol: as §4

GST-human NOGO-A56 [6] = biological target: T1, GST-human NOGO-A56; assay: as above; remark: listed apart in the source
Protocol: as §4

GST-human NOGO-A56 [7] = biological target: T1, GST-human NOGO-A56; assay: as above; remark: listed apart in the source
Protocol: as §4

GST-human NOGO-A56 [8] = biological target: T1, GST-human NOGO-A56; assay: SPR (Biacore 3000), GST-human NOGO-A56 amine-coupled to CM5, antibody as analyte; mean (SD) of four experiments
Protocol: as §1, §2, §3

GST-human NOGO-A56 [9] = biological target: T1, GST-human NOGO-A56; assay: SPR (Biacore) off-rate ranking, CHO-K1 transient supernatant over GST-human NOGO-A56 chip; mean (SD) of two runs
Protocol: as §2
(§5) The hNOGO chip was prepared as for kinetic analysis. Cell supernatants where taken directly from transient transfections of CHO-K1 cells. These were passed directly over the sensor surface and the interaction measured. A mock transfected cell supernatant was used for double referencing to remove any artefacts due to the tissue culture media. All runs were referenced against a blanked sensor surface (one that had been activated and blocked as described earlier but had no addition of ligand). Analysis of binding was carried out using the BIAevaluation kinetic analysis software version 4.1.

GST-human NOGO-A56 [10] = biological target: T1, GST-human NOGO-A56; assay: SPR (BiaCore kinetic analysis), human NOGO
GST-human NOGO-A56 [11] = biological target: T1, GST-human NOGO-A56; assay: SPR (Biacore 3000), GST-human NOGO-A56 on CM5, antibody as analyte; mean (SD) of two experiments; mean (SD) of two separate experiments
Protocol: as §2, §3

GST-human NOGO-A56 [12] = biological target: T1, GST-human NOGO-A56; assay: SPR (Biacore) off-rate ranking, CHO-K1 transient supernatant over GST-human NOGO-A56 chip; single experiment
Protocol: as §2, §5

GST-human NOGO-A56 [13] = biological target: T1, GST-human NOGO-A56; assay: ELISA, coated GST-human NOGO-A56, transfection supernatant, anti-human kappa-HRP, OD 490 nm; remark: listed apart in the source
Protocol: as §4

GST-human NOGO-A56 [14] = biological target: T1, GST-human NOGO-A56; assay: as above; remark: listed apart in the source
Protocol: as §4

GST-human NOGO-A56 [15] = biological target: T1, GST-human NOGO-A56; assay: SPR (Biacore) off-rate ranking, CHO-K1 transient supernatant over GST-human NOGO-A56 chip; mean (SD) of three runs
Protocol: as §2, §5

T1 sequence (P08515 1-218, tags or fused parts left off): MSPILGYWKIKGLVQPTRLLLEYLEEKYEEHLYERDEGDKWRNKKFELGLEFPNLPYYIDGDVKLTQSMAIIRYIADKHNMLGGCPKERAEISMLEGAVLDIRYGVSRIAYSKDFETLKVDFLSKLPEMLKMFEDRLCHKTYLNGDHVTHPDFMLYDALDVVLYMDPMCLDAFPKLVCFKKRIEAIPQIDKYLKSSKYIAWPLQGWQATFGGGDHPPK

| Binder | Kd (GST-human NOGO-A56 [1]) [nM] | koff (GST-human NOGO-A56 [1]) [s⁻¹] | kon (GST-human NOGO-A56 [1]) [M⁻¹ s⁻¹] | koff (GST-human NOGO-A56 [2]) [s⁻¹] | kon (GST-human NOGO-A56 [2]) [M⁻¹ s⁻¹] | EC50 (read off the curve) (GST-human NOGO-A56 [4]) [µg/mL] | EC50 (read off the curve) (GST-human NOGO-A56 [5]) [µg/mL] | EC50 (read off the curve) (GST-human NOGO-A56 [7]) [µg/mL] | Kd (GST-human NOGO-A56 [8]) [nM] | koff (GST-human NOGO-A56 [8]) [s⁻¹] | kon (GST-human NOGO-A56 [8]) [M⁻¹ s⁻¹] | koff (GST-human NOGO-A56 [9]) [s⁻¹] | EC50 (read off the curve) (GST-human NOGO-A56 [14]) [µg/mL] | further results |
| --- | --- | --- | --- | --- | --- | --- | --- | --- | --- | --- | --- | --- | --- | --- |
| B1 | 1.6 | 0.00412 | 2.62e+06 | 0.00346 | 3.52e+06 | ~0.2 | ~0.2 | ~0.02 | 1.41 | 0.00378 | 2.7e+06 | 0.00376 | – | Kd (GST-human NOGO-A56 [2]): 0.995 nM; EC50 (read off the curve) (GST-human NOGO-A56 [3]): ~0.09 µg/mL; EC50 (read off the curve) (GST-human NOGO-A56 [6]): ~0.05 µg/mL |
| B2 | – | – | – | – | – | – | – | – | – | – | – | – | – | Kd (GST-human NOGO-A56 [10]): ~1 nM; koff (GST-human NOGO-A56 [10]): ~0.00184 s⁻¹ |
| B3 | – | – | – | 0.00284 | 2.17e+06 | – | – | – | – | – | – | – | – | Kd (GST-human NOGO-A56 [11]): 2.21 nM |
| B4 | – | – | – | – | – | ~0.5 | ~0.4 | – | – | – | – | – | – | koff (GST-human NOGO-A56 [12]): 0.0106 s⁻¹ |
| B5 | 1 | 0.00569 | 5.47e+06 | – | – | – | – | ~0.04 | 1.26 | 0.00554 | 4.37e+06 | – | ~0.06 | EC50 (read off the curve) (GST-human NOGO-A56 [13]): ~0.06 µg/mL; koff (GST-human NOGO-A56 [15]): 0.00664 s⁻¹ |
| B6 | – | – | – | – | – | ~0.4 | ~0.4 | – | 1.62 | 0.00586 | 3.64e+06 | 0.00687 | ~0.04 | – |
